According to publication PMC3345047 (Molecular Microbiology, 2012):

Molecular target: the molecule itself
Assay: SEC

B1: pro-PanD (uncleaved L-aspartate-alpha-decarboxylase) of Salmonella enterica (enzyme, S. enterica serovar Typhimurium LT2, UniProt P65662 1-126, looked up)
chain: MIRTMLQGKLHRVKVTQADLHYEGSCAIDQDFLDASGILENEAIDIWNVTNGKRFSTYAIAAERGSRIISVNGAAAHCAEVGDIVIIASFVTMSDEEARTWRPKVAYFEGDNEMKRTAKAIPVQVA
stoichiometry N: 4
